In IntAct's records for PubMed 9425168:

B1: Focal adhesion kinase 1 (Gallus gallus (Chicken)), Q00944 (parent)
chain: MAAAYLDPNLNHTPSSSAKTHLGTGMERSPGAMERVLKVFHYFENSSEPTTWASIIRHGDATDVRGIIQKIVDCHKVKNVACYGLRLSHLQSEEVHWLHLDMGVSNVREKFELAHPPEEWKYELRIRYLPKGFLNQFTEDKPTLNFFYQQVKNDYMLEIADQVDQEIALKLGCLEIRRSYGEMRGNALEKKSNYEVLEKDVGLRRFFPKSLLDSVKAKTLRKLIQQTFRQFANLNREESILKFFEILSPVYRFDKECFKCALGSSWIISVELAIGPEEGISYLTDKGANPTHLADFNQVQTIQYSNSEDKDRKGMLQLKIAGAPEPLTVTAPSLTIAENMADLIDGYCRLVNGATQSFIIRPQKEGERALPSIPKLANNEKQGVRSHTVSVSETDDYAEIIDEEDTYTMPSTRDYEIQRERIELGRCIGEGQFGDVHQGIYMSPENPAMAVAIKTCKNCTSDSVREKFLQEALTMRQFDHPHIVKLIGVITENPVWIIMELCTLGELRSFLQVRKFSLDLASLILYAYQLSTALAYLESKRFVHRDIAARNVLVSATDCVKLGDFGLSRYMEDSTYYKASKGKLPIKWMAPESINFRRFTSASDVWMFGVCMWEILMHGVKPFQGVKNNDVIGRIENGERLPMPPNCPPTLYSLMTKCWAYDPSRRPRFTELKAQLSTILEEEKLQQEERMRMESRRQVTVSWDSGGSDEAPPKPSRPGYPSPRSSEGFYPSPQHMVQPNHYQVSGYSGSHGIPAMAGSIYPGQASLLDQTDSWNHRPQEVSAWQPNMEDSGTLDVRGMGQVLPTHLMEERLIRQQQEMEEDQRWLEKEERFLVMKPDVRLSRGSIEREDGGLQGPAGNQHIYQPVGKPDHAAPPKKPPRPGAPHLGSLASLNSPVDSYNEGVKIKPQEISPPPTANLDRSNDKVYENVTGLVKAVIEMSSKIQPAPPEEYVPMVKEVGLALRTLLATVDESLPVLPASTHREIEMAQKLLNSDLAELINKMKLAQQYVMTSLQQEYKKQMLTAAHALAVDAKNLLDVIDQARLKMISQSRPH

Variants of: B1
Settings: with src_chick SRC
With Y397F the “effect of a mutation on the interaction” value was “disrupting interaction”.

Variants of: B1
Settings: with Src
For Y397F, the “effect of a mutation on the interaction” value was “decreasing interaction”.
